According to the supplement of paper PMC9112550, “Optimization of the antimicrobial peptide Bac7 by deep mutational scanning” (BMC Biology, 2022):

Each sequence was assayed on Escherichia coli TOP10 (assay: shrunken log2 fold change of peptide-encoding DNA abundance (4.5 h post-induction vs induction); higher = less antimicrobial activity (less host growth inhibition)). Conditions: time post-induction: 4.5 h; library: site-saturation at positions 5, 18, 19, 20.
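Note: peptides expressed intracellularly from a pBAD plasmid library in pooled LB shake-flask culture, induced with 0.3% L-arabinose, DNA abundance read by NGS, three biological replicates, DESeq2 with apeglm shrinkage.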

| Sequence | shrunken log2 fold change |
| --- | --- |
| RRIRVRPPRLPRPRPRPTRGPRP | 0.412 |
| RRIRVRPPRLPRPRPRPTSHPRP | -0.139 |
| RRIRVRPPRLPRPRPRPTTTPRP | 0.1 |
| RRIRVRPPRLPRPRPRPTVAPRP | 0.37 |
| RRIRVRPPRLPRPRPRPTWHPRP | 0.384 |
| RRIRVRPPRLPRPRPRPTWIPRP | 0.216 |
| RRIRVRPPRLPRPRPRPTWQPRP | 0.27 |
| RRIRVRPPRLPRPRPRPTWVPRP | 0.228 |
| RRIRVRPPRLPRPRPRPTYKPRP | -0.512 |
| RRIRVRPPRLPRPRPRPVADPRP | 0.181 |
| RRIRVRPPRLPRPRPRPVCDPRP | 0.0894 |
| RRIRVRPPRLPRPRPRPVCTPRP | 0.165 |
| RRIRVRPPRLPRPRPRPVDHPRP | -0.464 |
| RRIRVRPPRLPRPRPRPVDQPRP | -0.0903 |
| RRIRVRPPRLPRPRPRPVDYPRP | -0.034 |
| RRIRVRPPRLPRPRPRPVEHPRP | 0.00181 |
| RRIRVRPPRLPRPRPRPVFWPRP | 0.378 |
| RRIRVRPPRLPRPRPRPVGQPRP | 0.0877 |
| RRIRVRPPRLPRPRPRPVIDPRP | 0.0104 |
| RRIRVRPPRLPRPRPRPVLFPRP | 0.00022 |
| RRIRVRPPRLPRPRPRPVLIPRP | -0.186 |
| RRIRVRPPRLPRPRPRPVMCPRP | -0.0631 |
| RRIRVRPPRLPRPRPRPVMPPRP | -0.0577 |
| RRIRVRPPRLPRPRPRPVNFPRP | 0.02 |
| RRIRVRPPRLPRPRPRPVNMPRP | -0.418 |

| Sequence | shrunken log2 fold change |
| --- | --- |
| RRIRVRPPRLPRPRPRPVPLPRP | -0.121 |
| RRIRVRPPRLPRPRPRPVQIPRP | -0.0141 |
| RRIRVRPPRLPRPRPRPVRQPRP | -0.0557 |
| RRIRVRPPRLPRPRPRPVYKPRP | -0.302 |
| RRIRVRPPRLPRPRPRPVYMPRP | -0.184 |
| RRIRVRPPRLPRPRPRPVYNPRP | -0.738 |
| RRIRVRPPRLPRPRPRPVYWPRP | 0.0159 |
| RRIRVRPPRLPRPRPRPVYYPRP | -0.696 |
| RRIRVRPPRLPRPRPRPWARPRP | 0.416 |
| RRIRVRPPRLPRPRPRPWCIPRP | -0.165 |
| RRIRVRPPRLPRPRPRPWCLPRP | -0.198 |
| RRIRVRPPRLPRPRPRPWGMPRP | 0.0336 |
| RRIRVRPPRLPRPRPRPWGYPRP | -0.0139 |
| RRIRVRPPRLPRPRPRPWKGPRP | 0.103 |
| RRIRVRPPRLPRPRPRPWLIPRP | -0.277 |
| RRIRVRPPRLPRPRPRPWLQPRP | -0.0274 |
| RRIRVRPPRLPRPRPRPWNKPRP | -0.635 |
| RRIRVRPPRLPRPRPRPWNMPRP | -0.192 |
| RRIRVRPPRLPRPRPRPWSQPRP | -0.219 |
| RRIRVRPPRLPRPRPRPWTCPRP | -0.0943 |
| RRIRVRPPRLPRPRPRPWTGPRP | -0.0167 |
| RRIRVRPPRLPRPRPRPWWAPRP | -0.0894 |
| RRIRVRPPRLPRPRPRPWWPPRP | 0.162 |
| RRIRVRPPRLPRPRPRPWYLPRP | -0.425 |
| RRIRVRPPRLPRPRPRPYATPRP | -0.124 |

| Sequence | shrunken log2 fold change |
| --- | --- |
| RRIRVRPPRLPRPRPRPYCTPRP | -0.284 |
| RRIRVRPPRLPRPRPRPYDQPRP | -0.192 |
| RRIRVRPPRLPRPRPRPYELPRP | -0.401 |
| RRIRVRPPRLPRPRPRPYFNPRP | -0.729 |
| RRIRVRPPRLPRPRPRPYFTPRP | -0.689 |
| RRIRVRPPRLPRPRPRPYFWPRP | -0.395 |
| RRIRVRPPRLPRPRPRPYGPPRP | -0.041 |
| RRIRVRPPRLPRPRPRPYHGPRP | -0.237 |
| RRIRVRPPRLPRPRPRPYIIPRP | -0.519 |
| RRIRVRPPRLPRPRPRPYKCPRP | -0.0495 |
| RRIRVRPPRLPRPRPRPYLFPRP | 0.0655 |
| RRIRVRPPRLPRPRPRPYLTPRP | -0.575 |
| RRIRVRPPRLPRPRPRPYLWPRP | -0.269 |
| RRIRVRPPRLPRPRPRPYLYPRP | -1.05 |
| RRIRVRPPRLPRPRPRPYMCPRP | -0.274 |
| RRIRVRPPRLPRPRPRPYMGPRP | -0.895 |
| RRIRVRPPRLPRPRPRPYMHPRP | -0.3 |
| RRIRVRPPRLPRPRPRPYNHPRP | -0.343 |
| RRIRVRPPRLPRPRPRPYPKPRP | -0.858 |
| RRIRVRPPRLPRPRPRPYQLPRP | -0.228 |
| RRIRVRPPRLPRPRPRPYRKPRP | -0.259 |
| RRIRVRPPRLPRPRPRPYTRPRP | -0.0163 |
| RRIRVRPPRLPRPRPRPYTYPRP | 0.128 |
| RRIRVRPPRLPRPRPRPYVCPRP | -0.525 |
| RRIRVRPPRLPRPRPRPYVPPRP | -0.398 |
